Results: patent publication US20250282860A1 (SUZHOU FORLONG BIOTECHNOLOGY, published 2025)

T1: IL-2 receptor α (UniProt P01589 22-213, limits assumed)
T1 construct: BLI used Anti-human IgG Fc Capture (AHC) probes with the IL-2 mutant diluted as analyte; also called IL-2Rα; CD25
T1 sequence (looked up): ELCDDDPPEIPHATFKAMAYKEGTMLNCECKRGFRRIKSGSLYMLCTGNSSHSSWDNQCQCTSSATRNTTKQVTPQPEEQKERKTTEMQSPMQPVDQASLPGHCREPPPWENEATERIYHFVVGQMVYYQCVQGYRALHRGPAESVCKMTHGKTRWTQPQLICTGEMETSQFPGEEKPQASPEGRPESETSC

T2: IL-2 receptor β (UniProt P14784 27-239, limits assumed)
T2 construct: BLI used Anti-human IgG Fc Capture (AHC) probes with the IL-2 mutant diluted as analyte; also called IL-2Rβ; CD122
T2 sequence (looked up): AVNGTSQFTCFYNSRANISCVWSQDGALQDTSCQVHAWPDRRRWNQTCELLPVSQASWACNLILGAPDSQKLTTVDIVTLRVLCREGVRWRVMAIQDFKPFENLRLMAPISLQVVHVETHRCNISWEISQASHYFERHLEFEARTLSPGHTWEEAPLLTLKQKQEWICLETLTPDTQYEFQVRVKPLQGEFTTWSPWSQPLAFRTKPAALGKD


Target: T1, IL-2 receptor α
Experiment: BLI, AHC probes

| Binder | binding result |
| --- | --- |
| IL-2 mutant 21-C1 (ligand, Expressed in Expi293; also called 1.21-C1) APTSSSTKKTQLQLEHLLLDLQMILNGINNYKNPLLTDMLTLHFYMPKKATELKHLQCLEEELKPLEEVLNFAQSKNFHLRPRDLISNINVIVLELKGSETTFMCEYADETATIVEFLNRWITFCQSIISTLT | no binding (tested: 100 nM highest concentration) |
| IL-2 mutant 21-F10 (ligand, Expressed in Expi293; also called 3.21-F10) APTSSSTKKTQLQLEHLLLDLQMILNGINNYKNPELTDMLTFKFYMPKKATELKHLQCLEEELKPLEEVLNAAQSKNFHLRPRDLISNINVIVLELKGSETTFMCEYADETATIVEFLNRWITFCQSIISTLT | no binding (tested: 100 nM highest concentration) |
| IL-2 mutant 24-C6 (ligand, Expressed in Expi293; also called 12.24-C6) APTSSSTKKTQLQLEHLLLDLQMILNGINNYKNPELTEMLTFKFYMPKKATELKHLQCLEEELKPLEEVLNAAQSKNFHLRPRDLISNINVIVLELKGSETTFMCEYADETATIVEFLNRWITFCQSIISTLT | no binding (tested: 100 nM highest concentration) |
| IL-2 mutant 23-H9 (ligand, Expressed in Expi293; also called 10.23-H9) APTSSSTKKTQLQLEHLLLDLQMILNGINNYKNPGLTDMLTYSFDMPKKATELKHLQCLEEELKPLEEVLNLAQSKNFHLRPRDLISNINVIVLELKGSETTFMCEYADETATIVEFLNRWITFCQSIISTLT | no binding (tested: 100 nM highest concentration) |
| IL-2 mutant 23-C8 (ligand, Expressed in Expi293; also called 9.23-C8) APTSSSTKKTQLQLEHLLLDLQMILNGINNYKNPGLTDMLTFNFYMPKKATELKHLQCLEEELKPLEEVLNFAQSKNFHLRPRDLISNINVIVLELKGSETTFMCEYADETATIVEFLNRWITFCQSIISTLT | no binding (tested: 100 nM highest concentration) |
| IL-2 mutant 24-E4 (ligand, Expressed in Expi293; also called 14.24-E4) APTSSSTKKTQLQLEHLLLDLQMILNGINNYKNPDLTDMLTFKFYMPKKATELKHLQCLEEELKPLEEVLNAAQSKNFHLRPRDLISNINVIVLELKGSETTFMCEYADETATIVEFLNRWITFCQSIISTLT | no binding (tested: 100 nM highest concentration) |
| IL-2 mutant 22-A4 (ligand, Expressed in Expi293; also called 4.22-A4) APTSSSTKKTQLQLEHLLLDLQMILNGINNYKNPGLTDMLTIQFFMPKKATELKHLQCLEEELKPLEEVLNFAQSKNFHLRPRDLISNINVIVLELKGSETTFMCEYADETATIVEFLNRWITFCQSIISTLT | no binding (tested: 100 nM highest concentration) |
| IL-2 mutant 24-C2 (ligand, Expressed in Expi293; also called 11.24-C2) APTSSSTKKTQLQLEHLLLDLQMILNGINNYKNPDLTEMLTFKFYMPKKATELKHLQCLEEELKPLEEVLNSAQSKNFHLRPRDLISNINVIVLELKGSETTFMCEYADETATIVEFLNRWITFCQSIISTLT | no binding (tested: 100 nM highest concentration) |
| IL-2 mutant 22-E8 (ligand, Expressed in Expi293; also called 7.22-E8) APTSSSTKKTQLQLEHLLLDLQMILNGINNYKNPDLTEMLTFKFYMPKKATELKHLQCLEEELKPLEEVLNQAQSKNFHLRPRDLISNINVIVLELKGSETTFMCEYADETATIVEFLNRWITFCQSIISTLT | no binding (tested: 100 nM highest concentration) |
| IL-2 mutant 22-D11 (ligand, Expressed in Expi293; also called 6.22-D11) APTSSSTKKTQLQLEHLLLDLQMILNGINNYKNPDLTDMLTLRFFMPKKATELKHLQCLEEELKPLEEVLNFAQSKNFHLRPRDLISNINVIVLELKGSETTFMCEYADETATIVEFLNRWITFCQSIISTLT | no binding (tested: 100 nM highest concentration) |
| IL-2 mutant 24-D2 (ligand, Expressed in Expi293; also called 13.24-D2) APTSSSTKKTQLQLEHLLLDLQMILNGINNYKNPELTDMLTFKFYMPKKATELKHLQCLEEELKPLEEVLNGAQSKNFHLRPRDLISNINVIVLELKGSETTFMCEYADETATIVEFLNRWITFCQSIISTLT | no binding (tested: 100 nM highest concentration) |
| IL-2 mutant 21-F9 (ligand, Expressed in Expi293; also called 2.21-F9) APTSSSTKKTQLQLEHLLLDLQMILNGINNYKNPMLTDMLTVGFFMPKKATELKHLQCLEEELKPLEEVLNFAQSKNFHLRPRDLISNINVIVLELKGSETTFMCEYADETATIVEFLNRWITFCQSIISTLT | no binding (tested: 100 nM highest concentration) |
| IL-2 mutant 22-B2 (ligand, Expressed in Expi293; also called 5.22-B2) APTSSSTKKTQLQLEHLLLDLQMILNGINNYKNPSLTDMLTLQFYMPKKATELKHLQCLEEELKPLEEVLNFAQSKNFHLRPRDLISNINVIVLELKGSETTFMCEYADETATIVEFLNRWITFCQSIISTLT | no binding (tested: 100 nM highest concentration) |

Target: T2, IL-2 receptor β
Experiment: BLI, AHC probes, IL-2 diluted 3-fold from 1000 nM to 12.35 nM

| Kd [nM] | Binder |
| --- | --- |
| 50 | IL-2 mutant 21-F9 (ligand, Expressed in Expi293; also called 2.21-F9) APTSSSTKKTQLQLEHLLLDLQMILNGINNYKNPMLTDMLTVGFFMPKKATELKHLQCLEEELKPLEEVLNFAQSKNFHLRPRDLISNINVIVLELKGSETTFMCEYADETATIVEFLNRWITFCQSIISTLT |

Target: T1, IL-2 receptor α
Experiment: BLI with AHC probes; C125A protein in 3-fold dilutions from 100 nM to 1.23 nM

| binding result | Binder |
| --- | --- |
| no binding (tested: 100 nM) | IL-2 mutant 24-C2-C125A (ligand) APTSSSTKKTQLQLEHLLLDLQMILNGINNYKNPDLTEMLTFKFYMPKKATELKHLQCLEEELKPLEEVLNSAQSKNFHLRPRDLISNINVIVLELKGSETTFMCEYADETATIVEFLNRWITFAQSIISTLT |
| no binding (tested: 100 nM) | IL-2 mutant 24-E4-C125A (ligand) APTSSSTKKTQLQLEHLLLDLQMILNGINNYKNPDLTDMLTFKFYMPKKATELKHLQCLEEELKPLEEVLNAAQSKNFHLRPRDLISNINVIVLELKGSETTFMCEYADETATIVEFLNRWITFAQSIISTLT |
| no binding (tested: 100 nM) | IL-2 mutant 23-C8-C125A (ligand) APTSSSTKKTQLQLEHLLLDLQMILNGINNYKNPGLTDMLTFNFYMPKKATELKHLQCLEEELKPLEEVLNFAQSKNFHLRPRDLISNINVIVLELKGSETTFMCEYADETATIVEFLNRWITFAQSIISTLT |
| no binding (tested: 100 nM) | IL-2 mutant 21-F10-C125A (ligand) APTSSSTKKTQLQLEHLLLDLQMILNGINNYKNPELTDMLTFKFYMPKKATELKHLQCLEEELKPLEEVLNAAQSKNFHLRPRDLISNINVIVLELKGSETTFMCEYADETATIVEFLNRWITFAQSIISTLT |
| no binding (tested: 100 nM) | IL-2 mutant 22-E8-C125A (ligand) APTSSSTKKTQLQLEHLLLDLQMILNGINNYKNPDLTEMLTFKFYMPKKATELKHLQCLEEELKPLEEVLNQAQSKNFHLRPRDLISNINVIVLELKGSETTFMCEYADETATIVEFLNRWITFAQSIISTLT |
| no binding (tested: 100 nM) | IL-2 mutant 24-D2-C125A (ligand) APTSSSTKKTQLQLEHLLLDLQMILNGINNYKNPELTDMLTFKFYMPKKATELKHLQCLEEELKPLEEVLNGAQSKNFHLRPRDLISNINVIVLELKGSETTFMCEYADETATIVEFLNRWITFAQSIISTLT |
